Measurements published in publication PMC4686829.

How the values were obtained:
[1] = target: HA glycoprotein of A/chicken/Henan/16/2004 (H5N1, clade 8) (influenza A virus A/chicken/Henan/16/2004 (H5N1))
[2] = target: HA glycoprotein of A/Indonesia/5/2005 (H5N1, clade 2.1.3.2) (influenza A virus A/Indonesia/5/2005 (H5N1))
[3] = target: HA glycoprotein of A/blackbird/Hunan/1/2004 (H5N1, clade 6) (influenza A virus A/blackbird/Hunan/1/2004 (H5N1))
[4] = target: HA glycoprotein of A/Hong Kong/156/1997 (H5N1, clade 0) (influenza A virus A/Hong Kong/156/1997 (H5N1)) (UniProt O56140)
[5] = target: HA glycoprotein of A/goose/Shantou/1621/2005 (H5N1, clade 9) (influenza A virus A/goose/Shantou/1621/2005 (H5N1))
[6] = target: HA glycoprotein of A/Turkey/65596/2006 (H5N1, clade 2.2.1) (influenza A virus A/Turkey/65596/2006 (H5N1))
[7] = target: HA glycoprotein of A/Thailand/(KAN-1)/2004 (H5N1, clade 1) (influenza A virus A/Thailand/(KAN-1)/2004 (H5N1))
[8] = target: HA glycoprotein of A/chicken/Korea/es/2003 (H5N1, clade 2.5) (influenza A virus A/chicken/Korea/es/2003 (H5N1))
[9] = target: HA glycoprotein of A/duck/Guangxi/1378/2004 (H5N1, clade 5) (influenza A virus A/duck/Guangxi/1378/2004 (H5N1))
[10] = target: HA glycoprotein of A/silky chicken/Hong Kong/SF189/2001 (H5N1, clade 3) (influenza A virus A/silky chicken/Hong Kong/SF189/2001 (H5N1))
[11] = target: HA glycoprotein of A/common magpie/Hong Kong/5052/2007 (H5N1, clade 2.3.2.1) (influenza A virus A/common magpie/Hong Kong/5052/2007 (H5N1))
[12] = target: HA glycoprotein of A/goose/Guiyang/337/2006 (H5N1, clade 4) (influenza A virus A/goose/Guiyang/337/2006 (H5N1))
[13] = target: HA glycoprotein of A/chicken/Guangxi/12/2004 (H5N1, clade 2.4) (influenza A virus A/chicken/Guangxi/12/2004 (H5N1))
[14] = target: HA glycoprotein of A/Shenzhen/406H/2006 (H5N1, clade 2.3.4) (influenza A virus A/Shenzhen/406H/2006 (H5N1))
[15] = target: HA glycoprotein of A/Chicken/Vietnam/NCVD-03/08 (H5N1, clade 7.1) (influenza A virus A/Chicken/Vietnam/NCVD-03/08 (H5N1))
[16] = target: HA glycoprotein of A/Chicken/Vietnam /NCVD-16/08 (H5N1, clade 7.1) (influenza A virus A/Chicken/Vietnam/NCVD-16/08 (H5N1))

## 65C6, full-length human IgG1 (antibody)
[1]
  IC50 of neutralisation of pseudovirus bearing this HA: 0.014 µg/mL
[2]
  IC50 of neutralisation of pseudovirus bearing this HA: 0.004 µg/mL
[3]
  IC50 of neutralisation of pseudovirus bearing this HA: 0.007 µg/mL
[4]
  IC50 of neutralisation of pseudovirus bearing this HA: 0.005 µg/mL
[5]
  IC50 of neutralisation of pseudovirus bearing this HA: 0.007 µg/mL
[6]
  IC50 of neutralisation of pseudovirus bearing this HA: 0.002 µg/mL
[7]
  IC50 of neutralisation of pseudovirus bearing this HA: 0.029 µg/mL
[8]
  IC50 of neutralisation of pseudovirus bearing this HA: 0.005 µg/mL
[9]
  IC50 of neutralisation of pseudovirus bearing this HA: 0.005 µg/mL
[10]
  IC50 of neutralisation of pseudovirus bearing this HA: 0.011 µg/mL
[11]
  IC50 of neutralisation of pseudovirus bearing this HA: 0.034 µg/mL
[12]
  IC50 of neutralisation of pseudovirus bearing this HA: 0.025 µg/mL
[13]
  IC50 of neutralisation of pseudovirus bearing this HA: 0.005 µg/mL
[14]
  IC50 of neutralisation of pseudovirus bearing this HA: 0.02 µg/mL

## 100F4, full-length human IgG1 (antibody)
[1]
  IC50 of neutralisation of pseudovirus bearing this HA: 0.036 µg/mL
[2]
  IC50 of neutralisation of pseudovirus bearing this HA: 0.013 µg/mL
[3]
  IC50 of neutralisation of pseudovirus bearing this HA: 0.033 µg/mL
[4]
  IC50 of neutralisation of pseudovirus bearing this HA: 0.05 µg/mL
[5]
  IC50 of neutralisation of pseudovirus bearing this HA: 0.011 µg/mL
[6]
  IC50 of neutralisation of pseudovirus bearing this HA: 0.004 µg/mL
[7]
  IC50 of neutralisation of pseudovirus bearing this HA: 0.067 µg/mL
[8]
  IC50 of neutralisation of pseudovirus bearing this HA: 0.016 µg/mL
[9]
  IC50 of neutralisation of pseudovirus bearing this HA: 0.021 µg/mL
[10]
  IC50 of neutralisation of pseudovirus bearing this HA: 0.022 µg/mL
[11]
  IC50 of neutralisation of pseudovirus bearing this HA: 0.066 µg/mL
[12]
  IC50 of neutralisation of pseudovirus bearing this HA: 0.019 µg/mL
[13]
  IC50 of neutralisation of pseudovirus bearing this HA: 0.015 µg/mL
[14]
  IC50 of neutralisation of pseudovirus bearing this HA: 0.052 µg/mL

## AVFluIgG03, full-length human IgG1 (antibody)
[15]
  IC50 of neutralisation of pseudovirus bearing this HA: 0.069 µg/mL
[16]
  IC50 of neutralisation of pseudovirus bearing this HA: 0.03 µg/mL
[2]
  IC50 of neutralisation of pseudovirus bearing this HA: 4.75 µg/mL
[3]
  IC50 of neutralisation of pseudovirus bearing this HA: 0.004 µg/mL
[4]
  IC50 of neutralisation of pseudovirus bearing this HA: 0.008 µg/mL
[5]
  IC50 of neutralisation of pseudovirus bearing this HA: 0.018 µg/mL
[6]
  IC50 of neutralisation of pseudovirus bearing this HA: 1.86 µg/mL
[9]
  IC50 of neutralisation of pseudovirus bearing this HA: 0.009 µg/mL
[10]
  IC50 of neutralisation of pseudovirus bearing this HA: 0.069 µg/mL
[14]
  IC50 of neutralisation of pseudovirus bearing this HA: 0.002 µg/mL
